Source: the supplement of paper PMC10065799, “High-throughput profiling of sequence recognition by tyrosine kinases and SH2 domains using bacterial peptide display” (eLife, 2023)

Key:
MERTK = MERTK (UniProt Q12866); assay: phosphorylation enrichment, bacterial display (enrichment ratio); higher = better substrate or ligand; peptides without Tyr show the background
c-Src = assay: as above
EPHB2 = EPHB2 (UniProt P29323); assay: as above
FGFR1 = FGFR1 (UniProt P11362); assay: as above
Hck = Hck (UniProt P08631); assay: as above
c-Abl (mouse) = assay: as above
Fer (mouse) = assay: as above
EPHB1 = EPHB1 (UniProt P54762); assay: as above
Jak2 = Jak2 (UniProt O60674); assay: as above
AncSZ = assay: as above
Fyn = Fyn (UniProt P06241); assay: as above
FGFR3 = FGFR3 (UniProt P22607); assay: as above
Fes = Fes (UniProt P07332); assay: as above
c-Src SH2 = assay: SH2 binding enrichment of the phosphorylated peptide, bacterial display (enrichment ratio); higher = better substrate or ligand; peptides without Tyr show the background
SHP2-C SH2 = assay: as above
Grb2 SH2 = Grb2 SH2 (UniProt P62993); assay: as above
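Wherever SH2 binding enrichment of the phosphorylated peptide, bacterial display is given: peptide library displayed on the E. coli surface as eCPX fusions, selected cells deep-sequenced, score is each peptide's frequency after selection divided by its frequency in the input.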
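Wherever phosphorylation enrichment, bacterial display is given: 11-residue human phosphosite peptides and single-mutation variants displayed on the E. coli surface, counted by deep sequencing, each peptide's frequency after selection divided by its frequency in the unselected input library; frequency after pTyr selection over input frequency; kinase dosed for 20-30% of maximal phosphorylation in three min.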

Chain of Jak2 (O60674 whole entry, looked up): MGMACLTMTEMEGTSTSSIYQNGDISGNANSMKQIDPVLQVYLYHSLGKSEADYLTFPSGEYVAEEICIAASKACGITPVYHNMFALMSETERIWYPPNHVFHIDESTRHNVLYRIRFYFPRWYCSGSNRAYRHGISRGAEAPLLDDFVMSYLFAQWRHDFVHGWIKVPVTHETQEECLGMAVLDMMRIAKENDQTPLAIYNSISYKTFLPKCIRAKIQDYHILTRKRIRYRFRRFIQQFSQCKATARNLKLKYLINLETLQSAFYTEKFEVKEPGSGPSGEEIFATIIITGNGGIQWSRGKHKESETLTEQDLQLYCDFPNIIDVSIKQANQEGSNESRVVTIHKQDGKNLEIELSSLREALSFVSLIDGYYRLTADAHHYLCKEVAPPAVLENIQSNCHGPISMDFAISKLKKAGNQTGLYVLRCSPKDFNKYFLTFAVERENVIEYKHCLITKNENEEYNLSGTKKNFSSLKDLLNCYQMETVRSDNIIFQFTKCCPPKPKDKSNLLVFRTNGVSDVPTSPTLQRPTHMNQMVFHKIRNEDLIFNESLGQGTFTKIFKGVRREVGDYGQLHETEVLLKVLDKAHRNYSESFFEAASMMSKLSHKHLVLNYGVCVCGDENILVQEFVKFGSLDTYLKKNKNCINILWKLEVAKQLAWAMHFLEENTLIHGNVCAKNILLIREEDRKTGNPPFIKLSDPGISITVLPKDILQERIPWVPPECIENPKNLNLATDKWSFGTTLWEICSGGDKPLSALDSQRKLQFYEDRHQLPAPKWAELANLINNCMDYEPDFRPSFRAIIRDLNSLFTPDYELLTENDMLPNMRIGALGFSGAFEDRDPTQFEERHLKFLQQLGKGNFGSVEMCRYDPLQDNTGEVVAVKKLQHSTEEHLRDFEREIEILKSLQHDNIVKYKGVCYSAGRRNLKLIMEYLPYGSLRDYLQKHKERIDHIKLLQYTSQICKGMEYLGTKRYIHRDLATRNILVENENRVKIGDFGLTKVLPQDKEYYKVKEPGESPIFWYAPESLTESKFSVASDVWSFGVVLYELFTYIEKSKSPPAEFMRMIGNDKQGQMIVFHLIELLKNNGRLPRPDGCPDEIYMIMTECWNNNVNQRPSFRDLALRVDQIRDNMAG
Chain of EPHB2 (P29323 whole entry, looked up): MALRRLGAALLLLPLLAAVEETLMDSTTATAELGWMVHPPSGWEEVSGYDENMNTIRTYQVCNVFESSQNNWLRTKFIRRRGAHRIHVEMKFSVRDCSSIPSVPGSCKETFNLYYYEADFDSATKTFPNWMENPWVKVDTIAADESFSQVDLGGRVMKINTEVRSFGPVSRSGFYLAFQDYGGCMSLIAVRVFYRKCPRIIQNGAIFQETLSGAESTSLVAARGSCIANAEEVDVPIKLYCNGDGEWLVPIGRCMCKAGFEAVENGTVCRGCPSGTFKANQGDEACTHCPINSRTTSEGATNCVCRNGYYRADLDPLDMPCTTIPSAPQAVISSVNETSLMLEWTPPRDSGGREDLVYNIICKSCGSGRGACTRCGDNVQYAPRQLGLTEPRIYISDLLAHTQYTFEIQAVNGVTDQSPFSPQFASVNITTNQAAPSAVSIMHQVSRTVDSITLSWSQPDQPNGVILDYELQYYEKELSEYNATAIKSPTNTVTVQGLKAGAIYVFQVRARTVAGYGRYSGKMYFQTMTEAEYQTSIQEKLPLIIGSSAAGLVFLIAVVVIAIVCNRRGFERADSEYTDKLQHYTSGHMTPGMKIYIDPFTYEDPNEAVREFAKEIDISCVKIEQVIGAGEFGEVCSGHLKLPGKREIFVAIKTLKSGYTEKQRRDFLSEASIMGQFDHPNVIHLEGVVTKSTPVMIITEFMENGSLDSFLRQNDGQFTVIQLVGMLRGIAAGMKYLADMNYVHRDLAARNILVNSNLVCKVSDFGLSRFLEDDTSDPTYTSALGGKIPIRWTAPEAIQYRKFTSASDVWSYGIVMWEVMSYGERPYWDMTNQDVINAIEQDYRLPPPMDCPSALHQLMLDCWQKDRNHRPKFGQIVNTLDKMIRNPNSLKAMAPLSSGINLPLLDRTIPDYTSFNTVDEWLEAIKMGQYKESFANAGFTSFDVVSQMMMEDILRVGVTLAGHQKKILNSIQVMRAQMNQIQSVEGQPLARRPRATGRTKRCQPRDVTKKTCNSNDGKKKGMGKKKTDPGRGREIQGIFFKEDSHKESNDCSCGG
Chain of MERTK (Q12866 whole entry, looked up): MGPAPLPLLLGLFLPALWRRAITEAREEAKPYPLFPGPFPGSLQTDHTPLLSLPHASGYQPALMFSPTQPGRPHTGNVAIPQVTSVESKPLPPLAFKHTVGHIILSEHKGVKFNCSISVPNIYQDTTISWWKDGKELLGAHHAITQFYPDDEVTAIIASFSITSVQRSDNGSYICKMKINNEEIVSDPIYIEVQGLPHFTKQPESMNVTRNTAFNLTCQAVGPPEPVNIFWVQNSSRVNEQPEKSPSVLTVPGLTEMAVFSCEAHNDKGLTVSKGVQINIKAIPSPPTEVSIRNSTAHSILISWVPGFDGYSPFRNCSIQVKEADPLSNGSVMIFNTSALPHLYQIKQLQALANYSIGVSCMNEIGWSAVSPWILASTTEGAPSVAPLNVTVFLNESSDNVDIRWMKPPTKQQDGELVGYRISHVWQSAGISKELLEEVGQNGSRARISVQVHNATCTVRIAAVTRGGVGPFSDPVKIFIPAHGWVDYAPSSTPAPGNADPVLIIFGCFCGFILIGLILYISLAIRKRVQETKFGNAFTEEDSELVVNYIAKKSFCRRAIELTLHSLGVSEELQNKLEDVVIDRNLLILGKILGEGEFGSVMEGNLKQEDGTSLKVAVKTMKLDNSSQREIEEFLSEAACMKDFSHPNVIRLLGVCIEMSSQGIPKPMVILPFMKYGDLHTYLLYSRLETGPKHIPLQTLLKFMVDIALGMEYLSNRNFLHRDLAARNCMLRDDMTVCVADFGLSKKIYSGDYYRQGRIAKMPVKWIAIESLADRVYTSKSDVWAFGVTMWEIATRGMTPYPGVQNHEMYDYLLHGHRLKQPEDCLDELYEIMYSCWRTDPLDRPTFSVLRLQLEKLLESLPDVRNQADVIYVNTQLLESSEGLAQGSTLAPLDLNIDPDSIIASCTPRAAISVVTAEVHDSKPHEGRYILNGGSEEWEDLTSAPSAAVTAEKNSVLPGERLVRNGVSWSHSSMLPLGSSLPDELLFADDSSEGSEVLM
Chain of Fes (P07332 whole entry, looked up): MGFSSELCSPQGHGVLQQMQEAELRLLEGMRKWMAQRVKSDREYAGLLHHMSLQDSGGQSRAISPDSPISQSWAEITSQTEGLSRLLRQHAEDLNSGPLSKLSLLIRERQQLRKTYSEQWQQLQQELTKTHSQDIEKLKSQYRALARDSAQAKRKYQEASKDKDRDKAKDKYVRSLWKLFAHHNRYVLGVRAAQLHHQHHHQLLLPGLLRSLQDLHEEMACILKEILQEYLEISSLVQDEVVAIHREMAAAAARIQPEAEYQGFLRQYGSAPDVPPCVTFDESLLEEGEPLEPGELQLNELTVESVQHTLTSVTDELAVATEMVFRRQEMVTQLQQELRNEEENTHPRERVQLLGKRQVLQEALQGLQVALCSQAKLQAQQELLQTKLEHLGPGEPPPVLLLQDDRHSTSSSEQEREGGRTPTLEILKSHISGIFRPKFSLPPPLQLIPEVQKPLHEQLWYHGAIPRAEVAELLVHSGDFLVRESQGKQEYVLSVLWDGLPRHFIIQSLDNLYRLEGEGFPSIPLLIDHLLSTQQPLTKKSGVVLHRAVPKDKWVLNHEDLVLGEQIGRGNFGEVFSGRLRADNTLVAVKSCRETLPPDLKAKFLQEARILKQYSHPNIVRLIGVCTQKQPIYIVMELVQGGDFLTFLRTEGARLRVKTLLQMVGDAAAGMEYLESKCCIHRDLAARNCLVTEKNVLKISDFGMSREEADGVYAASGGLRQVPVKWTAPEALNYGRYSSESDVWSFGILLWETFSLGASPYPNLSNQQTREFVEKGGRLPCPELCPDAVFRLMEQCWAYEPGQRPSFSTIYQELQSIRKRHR
Chain of FGFR1 (P11362 whole entry, looked up): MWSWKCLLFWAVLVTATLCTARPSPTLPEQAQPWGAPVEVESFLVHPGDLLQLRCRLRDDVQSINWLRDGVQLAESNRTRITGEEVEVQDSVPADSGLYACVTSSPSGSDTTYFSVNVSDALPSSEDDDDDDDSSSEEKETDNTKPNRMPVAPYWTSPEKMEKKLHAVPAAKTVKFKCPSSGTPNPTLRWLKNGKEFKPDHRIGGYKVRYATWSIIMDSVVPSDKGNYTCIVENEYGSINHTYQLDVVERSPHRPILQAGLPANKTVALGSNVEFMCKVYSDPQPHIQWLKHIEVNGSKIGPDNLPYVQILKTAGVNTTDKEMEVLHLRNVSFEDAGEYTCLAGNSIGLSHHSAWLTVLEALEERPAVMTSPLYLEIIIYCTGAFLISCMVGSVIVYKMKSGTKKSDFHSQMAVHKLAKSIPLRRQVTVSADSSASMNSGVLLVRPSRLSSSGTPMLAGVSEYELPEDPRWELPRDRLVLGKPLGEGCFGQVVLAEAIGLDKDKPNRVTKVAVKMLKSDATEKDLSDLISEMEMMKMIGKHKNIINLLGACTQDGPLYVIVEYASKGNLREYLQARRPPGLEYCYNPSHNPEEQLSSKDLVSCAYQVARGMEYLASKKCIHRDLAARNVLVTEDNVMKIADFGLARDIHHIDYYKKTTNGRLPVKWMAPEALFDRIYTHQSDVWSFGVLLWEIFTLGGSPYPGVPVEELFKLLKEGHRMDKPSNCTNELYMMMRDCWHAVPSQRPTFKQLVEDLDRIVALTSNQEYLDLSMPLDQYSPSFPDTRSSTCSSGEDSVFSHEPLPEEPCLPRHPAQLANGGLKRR

Row | SH2 binding enrichment (c-Src SH2) | SH2 binding enrichment (SHP2-C SH2) | SH2 binding enrichment (Grb2 SH2) | Sequence | phosphorylation enrichment (MERTK) | phosphorylation enrichment (c-Src) | phosphorylation enrichment (EPHB2) | phosphorylation enrichment (FGFR1) | phosphorylation enrichment (Hck) | phosphorylation enrichment (c-Abl (mouse)) | phosphorylation enrichment (Fer (mouse)) | phosphorylation enrichment (EPHB1) | phosphorylation enrichment (Jak2) | phosphorylation enrichment (AncSZ) | phosphorylation enrichment (Fyn) | phosphorylation enrichment (FGFR3) | phosphorylation enrichment (Fes)
1 | 10.2 | 1.5 | 0.967 | KPNMNYDKLSW [FLI1_Y332_R337W] | 0.481 | 0.446 | 0.893 | 0.428 | 0.661 | 0.41 | 0.555 | 0.644 | 0.746 | 0.751 | 0.486 | 0.59 | 0.741
2 | 0.513 | 0.75 | 0.928 | EARRVYRDIIH [ALDH5A1_Y175_G176R] | 0.403 | 0.41 | 0.386 | 0.357 | 0.325 | 0.528 | 0.305 | 0.318 | 0.475 | 0.549 | 0.352 | 0.415 | 0.547
3 | 2.29 | 0.513 | 0.778 | PAIYTYDEYKK [COL8A2_Y648_T645I] | 13.5 | 9.14 | 3.29 | 2.04 | 8.13 | 1.04 | 9.34 | 3.61 | 1.27 | 1.93 | 18.6 | 2.2 | 1.95
4 | 0.896 | 0.735 | 0.891 | YSTDCYRVGGH [NTRK2_Y707_Y706C] | 3.67 | 0.415 | 0.555 | 0.594 | 0.45 | 0.79 | 0.414 | 0.554 | 0.639 | 0.733 | 0.438 | 0.683 | 0.827
5 | 0.547 | 0.871 | 1.15 | KTGNIYRTEFG [MRPL3_Y265_M261T_YF] | 0.413 | 0.349 | 0.377 | 0.517 | 0.435 | 0.457 | 0.35 | 0.422 | 0.468 | 0.585 | 0.437 | 0.491 | 0.542
6 | 0.586 | 0.734 | 0.766 | RPQDGFRIVQH [PTPRT_Y1329_Y1329F] | 0.52 | 0.483 | 0.426 | 0.43 | 0.532 | 0.836 | 0.417 | 0.62 | 0.561 | 0.769 | 0.597 | 0.45 | 0.838
7 | 1.32 | 1.64 | 0.9 | LNTFHYAGVSA [POLR2A_Y1109] | 0.449 | 0.464 | 0.415 | 0.407 | 0.45 | 0.552 | 0.469 | 0.434 | 0.584 | 0.656 | 0.419 | 0.56 | 0.722
8 | 0.492 | 0.56 | 0.929 | VTSLKYSTPPF [BRIP1_Y916_S919P_YF] | 0.457 | 0.436 | 0.493 | 0.491 | 0.52 | 0.595 | 0.38 | 0.342 | 0.599 | 0.607 | 0.472 | 0.517 | 0.841
9 | 1.72 | 8.46 | 1.55 | LENSTYQYIRV [CRB1_Y760] | 7.03 | 3.07 | 5.02 | 13 | 10.9 | 0.91 | 25.5 | 12.1 | 1.11 | 2.11 | 5.14 | 7.65 | 1.86
10 | 1.08 | 2.13 | 1.2 | VFSIDYFRVGG [NTRK2_Y706_T704I_YF] | 0.526 | 0.649 | 0.563 | 4.54 | 0.588 | 0.829 | 0.484 | 0.874 | 5.86 | 1.35 | 0.535 | 2.94 | 1.08
11 | 0.953 | 0.953 | 0.995 | GTHCHYKAPIV [FZD9_Y569_T573I] | 0.4 | 0.395 | 0.532 | 0.531 | 0.544 | 3.44 | 0.58 | 0.513 | 0.658 | 1.32 | 0.428 | 0.636 | 0.858
12 | 1.03 | 0.775 | 0.809 | WGLRSYYETSK [MAGED2_Y448] | 0.298 | 0.298 | 0.549 | 0.508 | 0.448 | 0.661 | 0.464 | 0.754 | 0.972 | 0.958 | 0.4 | 0.733 | 1.12
13 | 1.18 | 1.79 | 1.58 | RAYSWYQHQRA [NDST1_Y714] | 0.619 | 0.527 | 0.716 | 0.472 | 0.582 | 0.964 | 0.641 | 0.538 | 1.06 | 1.03 | 0.242 | 0.792 | 1.16
14 | 0.483 | 0.805 | 0.687 | EIVYVYVKKRS [DNAI2_Y7] | 0.377 | 0.399 | 0.57 | 0.52 | 0.538 | 0.64 | 0.465 | 0.555 | 1.01 | 1.29 | 0.354 | 0.675 | 1.1
15 | 0.645 | 0.733 | 0.599 | HNELFYEEAEH [VANGL1_Y345_YF] | 0.525 | 0.484 | 0.932 | 0.809 | 0.974 | 0.727 | 4.23 | 0.819 | 0.981 | 1.89 | 0.942 | 0.964 | 1.35
16 | 0.396 | 0.576 | 0.723 | LGSNGYKKLLK [SEPSECS_Y334] | 0.773 | 0.755 | 0.437 | 0.338 | 0.635 | 0.543 | 0.351 | 0.42 | 0.59 | 0.697 | 0.879 | 0.636 | 0.841
17 | 0.473 | 0.544 | 1.1 | LYSDHYSPSGR [TMPRSS12_Y23] | 28.8 | 2.15 | 2.91 | 1.14 | 2.01 | 1.54 | 16.8 | 4.19 | 1.41 | 1.27 | 1.01 | 0.958 | 1.03

Row | SH2 binding enrichment (c-Src SH2) | SH2 binding enrichment (SHP2-C SH2) | SH2 binding enrichment (Grb2 SH2) | Sequence | phosphorylation enrichment (MERTK) | phosphorylation enrichment (c-Src) | phosphorylation enrichment (EPHB2) | phosphorylation enrichment (FGFR1) | phosphorylation enrichment (Hck) | phosphorylation enrichment (c-Abl (mouse)) | phosphorylation enrichment (Fer (mouse)) | phosphorylation enrichment (EPHB1) | phosphorylation enrichment (Jak2) | phosphorylation enrichment (AncSZ) | phosphorylation enrichment (Fyn) | phosphorylation enrichment (FGFR3) | phosphorylation enrichment (Fes)
18 | 1.07 | 0.898 | 1.13 | CHKRTYKVTGL | 0.375 | 0.455 | 0.357 | 0.362 | 0.401 | 0.564 | 0.398 | 0.405 | 0.657 | 0.587 | 0.417 | 0.465 | 0.667
19 | 0.651 | 0.949 | 1.06 | NTFENYWPFFQ [GATM_Y103_K102N_YF] | 5.46 | 4.41 | 5.8 | 12.4 | 5.44 | 1.22 | 0.894 | 9.64 | 3.43 | 1.34 | 3.18 | 10.5 | 1.18
20 | 0.418 | 0.618 | 0.654 | TTGGFYSFGGG [KRT24_Y120_A115T_YF] | 8.96 | 1.67 | 0.442 | 0.46 | 1.57 | 0.585 | 1.55 | 0.766 | 0.604 | 0.623 | 4.22 | 0.446 | 0.847
21 | 3.11 | 1.06 | 0.81 | TGEKPYECVQC [ZNF24_Y335] | 0.509 | 0.501 | 0.507 | 0.501 | 0.521 | 0.519 | 1.87 | 0.514 | 0.664 | 0.755 | 0.515 | 0.531 | 0.7
22 | 0.704 | 0.833 | 1.03 | GTQCSYLLSRK [UGT3A1_Y123] | 0.436 | 0.42 | 0.554 | 0.482 | 0.392 | 0.569 | 0.43 | 0.427 | 0.655 | 0.634 | 0.329 | 0.441 | 0.676
23 | 0.398 | 0.723 | 0.783 | SSLMKYQQNVS [EGFEM1P_Y160_P157L] | 0.343 | 0.363 | 0.46 | 0.321 | 0.426 | 0.374 | 0.324 | 0.416 | 0.422 | 0.491 | 0.386 | 0.536 | 0.571
24 | 1.25 | 0.71 | 0.883 | IHYPPYTDWNQ [ALDH3B2_Y365] | 0.429 | 0.573 | 0.676 | 1.14 | 0.655 | 0.938 | 2.21 | 0.527 | 0.736 | 0.889 | 0.512 | 0.881 | 0.933
25 | 1.18 | 0.919 | 1.24 | KFDLMYAKWAF [TUBA3E_Y399] | 3.02 | 1.98 | 0.784 | 0.669 | 2.16 | 1.68 | 5.85 | 0.783 | 1 | 1.18 | 1.43 | 0.866 | 1.26
26 | 2.14 | 1.47 | 1.64 | CTTFHYNFMCN [TP53_Y234_I232F_YF] | 0.4 | 0.595 | 0.57 | 0.579 | 0.479 | 0.641 | 0.581 | 0.468 | 0.866 | 0.923 | 0.501 | 0.672 | 1.1
27 | 0.408 | 0.45 | 0.724 | ISISPYPAILH [IFT80_Y588_T586S] | 0.354 | 0.358 | 0.401 | 0.341 | 0.377 | 0.557 | 0.418 | 0.428 | 0.765 | 1.01 | 0.343 | 0.547 | 0.961
28 | 0.598 | 0.646 | 0.762 | EPYKVYRIVPE [IRF8_Y110] | 0.462 | 0.605 | 0.54 | 0.521 | 0.574 | 0.473 | 0.447 | 0.474 | 0.658 | 0.746 | 0.641 | 0.612 | 0.728
29 | 1.02 | 1.39 | 1.1 | CTTIHSNYMCN [TP53_Y234_Y234S] | 0.479 | 0.387 | 0.563 | 0.483 | 0.448 | 0.576 | 0.44 | 0.542 | 0.608 | 0.853 | 0.478 | 0.588 | 0.915
30 | 0.546 | 0.874 | 0.873 | LGGSPYPGVPV [FGFR1_Y701] | 0.4 | 0.359 | 0.615 | 0.514 | 0.481 | 0.675 | 0.413 | 0.493 | 0.503 | 0.591 | 0.524 | 0.463 | 0.881
31 | 0.493 | 0.651 | 0.347 | PLEGEYFTLQI [TP53_Y327_D324E] | 0.967 | 7.65 | 5.04 | 18.5 | 4.86 | 2.98 | 3.01 | 4.24 | 5.5 | 6.22 | 9.83 | 15.5 | 3
32 | 0.519 | 0.847 | 0.844 | KHMADYPDYKY [SOX11_Y113] | 0.322 | 0.4 | 0.471 | 0.453 | 0.401 | 0.404 | 0.42 | 0.458 | 0.442 | 0.642 | 0.407 | 0.632 | 0.616
33 | 0.542 | 0.681 | 0.8 | IFRASYVPFAA [RBM47_Y541_G538R_YF] | 0.389 | 0.384 | 0.548 | 0.508 | 0.506 | 0.527 | 0.388 | 0.645 | 0.784 | 0.859 | 0.463 | 0.635 | 1.04
